The target in the test is somatostatin receptor type 2 (SSTR2) (UniProt P30874 1-369). In words: cell-based or functional assay.

Starred links: 1 amine or outer side, 2 acyl side, 3 side chain; linkers in the order of their positions; H or OH if unused. Positions of bridges follow the written chain, without caps; N, C: chain ends. Non-standard residues stand in square brackets, D forms with d. *: point of attachment. dPhe(4-phenylureido) = D-4-(phenylureido)Phe, O=C(Nc1ccccc1)Nc1ccc(C[C@@H](N[*:1])C(=O)[*:2])cc1; Tyr(Me) = 4-OMe-Phe, COc1ccc(C[C@H](N[*:1])C(=O)[*:2])cc1; dPhe(4-CONH2) = NC(=O)c1ccc(C[C@@H](N)C(=O)O)cc1; Phe(4-Cl) = N[C@@H](Cc1ccc(Cl)cc1)C(=O)O; dPhe(4-Cl) = N[C@H](Cc1ccc(Cl)cc1)C(=O)O; dCit = NC(=O)NCCC[C@@H](N)C(=O)O; Tle = CC(C)(C)[C@H](N)C(=O)O; Nicotinoyl = O=C(c1cccnc1)*

Sequence of somatostatin receptor type 2 (SSTR2) (P30874 whole entry): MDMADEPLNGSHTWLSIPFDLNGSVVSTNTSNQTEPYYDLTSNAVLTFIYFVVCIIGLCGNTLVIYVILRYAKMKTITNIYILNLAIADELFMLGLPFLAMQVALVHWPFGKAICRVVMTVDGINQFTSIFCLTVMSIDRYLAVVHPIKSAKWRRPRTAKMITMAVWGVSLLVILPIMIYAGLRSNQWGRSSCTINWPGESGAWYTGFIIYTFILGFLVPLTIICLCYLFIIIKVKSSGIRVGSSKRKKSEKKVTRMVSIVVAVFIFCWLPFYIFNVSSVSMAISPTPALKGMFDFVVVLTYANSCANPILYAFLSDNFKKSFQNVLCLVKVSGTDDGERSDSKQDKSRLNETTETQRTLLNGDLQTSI

B1: Compound 39: H-Cpa-cyclo[Cys-Tyr-D-(4-carbamoyl)Phe-Lys-Thr-Cys]-DTyr-NH2 (peptide)
peptide: XCYXKTCX
HELM: PEPTIDE1{[N[C@@H](Cc1ccc(Cl)cc1)C(=O)[*:2]].C.Y.[NC(=O)c1ccc(C[C@@H](N[*:1])C(=O)[*:2])cc1].K.T.C.[dY].[am]}$PEPTIDE1,PEPTIDE1,2:R3-7:R3$$$V2.0
SMILES: C[C@@H](O)[C@@H]1NC(=O)[C@H](CCCCN)NC(=O)[C@@H](Cc2ccc(C(N)=O)cc2)NC(=O)[C@H](Cc2ccc(O)cc2)NC(=O)[C@@H](NC(=O)[C@@H](N)Cc2ccc(Cl)cc2)CSSC[C@@H](C(=O)N[C@H](Cc2ccc(O)cc2)C(N)=O)NC1=O
B1: the “IC50 (PathHunter β-Arrestin, antagonist mode)” value (“IC50” for short) was over 1000 nM.

B2: Compound 34: H-Cpa-cyclo[DCys-Tyr-D-4-(carbamoyl)Phe-Lys-tBu-Gly-Cys]-DTyr-NH2 (peptide)
peptide: H-[Phe(4-Cl)][dC]Y[dPhe(4-CONH2)]K[Tle]C[dY]-NH2
modifications: disulfide 2-7
SMILES: CC(C)(C)[C@@H]1NC(=O)[C@H](CCCCN)NC(=O)[C@@H](Cc2ccc(C(N)=O)cc2)NC(=O)[C@H](Cc2ccc(O)cc2)NC(=O)[C@H](NC(=O)[C@@H](N)Cc2ccc(Cl)cc2)CSSC[C@@H](C(=O)N[C@H](Cc2ccc(O)cc2)C(N)=O)NC1=O
For the molecule B2, the “IC50” value was found to be 43.4 nM.

B3: Compound 29: H-Cpa-cyclo[DCys-Tyr-D-(4-carbamoyl)Phe-Arg-Thr-Cys]-DTyr-NH2 (peptide)
peptide: XXYXRTCX
HELM: PEPTIDE1{[N[C@@H](Cc1ccc(Cl)cc1)C(=O)[*:2]].[dC].Y.[NC(=O)c1ccc(C[C@@H](N[*:1])C(=O)[*:2])cc1].R.T.C.[dY].[am]}$PEPTIDE1,PEPTIDE1,2:R3-7:R3$$$V2.0
SMILES: C[C@@H](O)[C@@H]1NC(=O)[C@H](CCCNC(=N)N)NC(=O)[C@@H](Cc2ccc(C(N)=O)cc2)NC(=O)[C@H](Cc2ccc(O)cc2)NC(=O)[C@H](NC(=O)[C@@H](N)Cc2ccc(Cl)cc2)CSSC[C@@H](C(=O)N[C@H](Cc2ccc(O)cc2)C(N)=O)NC1=O
With B3, the “IC50” value turned out to be 398 nM.

B4: Compound 33: H-Cpa-cyclo[DCys-Tyr-D-4-(carbamoyl)Phe-Lys-Val-Cys]-DTyr-NH2 (peptide)
peptide: XXYXKVCX
HELM: PEPTIDE1{[N[C@@H](Cc1ccc(Cl)cc1)C(=O)[*:2]].[dC].Y.[NC(=O)c1ccc(C[C@@H](N[*:1])C(=O)[*:2])cc1].K.V.C.[dY].[am]}$PEPTIDE1,PEPTIDE1,2:R3-7:R3$$$V2.0
SMILES: CC(C)[C@@H]1NC(=O)[C@H](CCCCN)NC(=O)[C@@H](Cc2ccc(C(N)=O)cc2)NC(=O)[C@H](Cc2ccc(O)cc2)NC(=O)[C@H](NC(=O)[C@@H](N)Cc2ccc(Cl)cc2)CSSC[C@@H](C(=O)N[C@H](Cc2ccc(O)cc2)C(N)=O)NC1=O
As for B4, the “IC50” value was determined as 56 nM.

B5: Compound 26: H-Cpa-cyclo[DCys-Tyr-D-(4-carbamoyl)Phe-(N-Acetyl)Lys-Thr-Cys]-DTyr-NH2 (peptide)
peptide: XXYXXTCX
HELM: PEPTIDE1{[N[C@@H](Cc1ccc(Cl)cc1)C(=O)[*:2]].[dC].Y.[NC(=O)c1ccc(C[C@@H](N[*:1])C(=O)[*:2])cc1].K.T.C.[dY].[am]}|PEPTIDE2{[ac]}$PEPTIDE1,PEPTIDE2,5:R3-1:R2|PEPTIDE1,PEPTIDE1,2:R3-7:R3$$$V2.0
SMILES: CC(=O)NCCCC[C@@H]1NC(=O)[C@@H](Cc2ccc(C(N)=O)cc2)NC(=O)[C@H](Cc2ccc(O)cc2)NC(=O)[C@H](NC(=O)[C@@H](N)Cc2ccc(Cl)cc2)CSSC[C@@H](C(=O)N[C@H](Cc2ccc(O)cc2)C(N)=O)NC(=O)[C@H]([C@@H](C)O)NC1=O
With B5, the “IC50” value is over 1000 nM.

B6: Compound 28: H-Cpa-cyclo[DCys-Tyr-D-(4-(4-methoxyphenyl)ureido)Phe-Lys-Thr-Cys]-DTyr-NH2 (peptide)
peptide: XXYXKTCX
HELM: PEPTIDE1{[N[C@@H](Cc1ccc(Cl)cc1)C(=O)[*:2]].[dC].Y.[COc1ccc(NC(=O)Nc2ccc(C[C@@H](N[*:1])C(=O)[*:2])cc2)cc1].K.T.C.[dY].[am]}$PEPTIDE1,PEPTIDE1,2:R3-7:R3$$$V2.0
SMILES: COc1ccc(NC(=O)Nc2ccc(C[C@H]3NC(=O)[C@H](Cc4ccc(O)cc4)NC(=O)[C@H](NC(=O)[C@@H](N)Cc4ccc(Cl)cc4)CSSC[C@@H](C(=O)N[C@H](Cc4ccc(O)cc4)C(N)=O)NC(=O)[C@H]([C@@H](C)O)NC(=O)[C@H](CCCCN)NC3=O)cc2)cc1
Turning to B6, the “IC50” value came to 104 nM.

B7: Compound 31: H-Cpa-cyclo[DCys-Tyr-D-Cit-(N-Me)Lys-Thr-Cys]-DTyr-NH2 (peptide)
peptide: H-[Phe(4-Cl)][dC]Y[dCit]K(Me)TC[dY]-NH2
modifications: disulfide 2-7
SMILES: CNCCCC[C@@H]1NC(=O)[C@@H](CCCNC(N)=O)NC(=O)[C@H](Cc2ccc(O)cc2)NC(=O)[C@H](NC(=O)[C@@H](N)Cc2ccc(Cl)cc2)CSSC[C@@H](C(=O)N[C@H](Cc2ccc(O)cc2)C(N)=O)NC(=O)[C@H]([C@@H](C)O)NC1=O
B7: the “IC50” value stood at 70.4 nM.

B8: Compound 41: H-Cpa-cyclo[DCys-Phe-D-(4-carbamoyl)Phe-Lys-Thr-Cys]-DPhe-NH2 (peptide)
peptide: XXFXKTCX
HELM: PEPTIDE1{[N[C@@H](Cc1ccc(Cl)cc1)C(=O)[*:2]].[dC].F.[NC(=O)c1ccc(C[C@@H](N[*:1])C(=O)[*:2])cc1].K.T.C.[dF].[am]}$PEPTIDE1,PEPTIDE1,2:R3-7:R3$$$V2.0
SMILES: C[C@@H](O)[C@@H]1NC(=O)[C@H](CCCCN)NC(=O)[C@@H](Cc2ccc(C(N)=O)cc2)NC(=O)[C@H](Cc2ccccc2)NC(=O)[C@H](NC(=O)[C@@H](N)Cc2ccc(Cl)cc2)CSSC[C@@H](C(=O)N[C@H](Cc2ccccc2)C(N)=O)NC1=O
For B8, the “IC50” value was 24.4 nM.

B9: Compound 37: H-Cpa-cyclo[DCys-Tyr-D-(4-carbamoyl)Phe-Lys-Ser-Cys]-DTyr-NH2 (peptide)
peptide: XXYXKSCX
HELM: PEPTIDE1{[N[C@@H](Cc1ccc(Cl)cc1)C(=O)[*:2]].[dC].Y.[NC(=O)c1ccc(C[C@@H](N[*:1])C(=O)[*:2])cc1].K.S.C.[dY].[am]}$PEPTIDE1,PEPTIDE1,2:R3-7:R3$$$V2.0
SMILES: NCCCC[C@@H]1NC(=O)[C@@H](Cc2ccc(C(N)=O)cc2)NC(=O)[C@H](Cc2ccc(O)cc2)NC(=O)[C@H](NC(=O)[C@@H](N)Cc2ccc(Cl)cc2)CSSC[C@@H](C(=O)N[C@H](Cc2ccc(O)cc2)C(N)=O)NC(=O)[C@H](CO)NC1=O
As for B9, the “IC50” value was determined as 10.6 nM.

B10: Compound 25: H-Cpa-cyclo[D-Cys-Tyr-D-Phe(4-phenylureido)-Lys(Nε-Me)-Thr-Cys]-D-Tyr-NH2 (peptide)
peptide: H-[Phe(4-Cl)][dC]Y[dPhe(4-phenylureido)]K(Me)TC[dY]-NH2
modifications: disulfide 2-7
SMILES: CNCCCC[C@@H]1NC(=O)[C@@H](Cc2ccc(NC(=O)Nc3ccccc3)cc2)NC(=O)[C@H](Cc2ccc(O)cc2)NC(=O)[C@H](NC(=O)[C@@H](N)Cc2ccc(Cl)cc2)CSSC[C@@H](C(=O)N[C@H](Cc2ccc(O)cc2)C(N)=O)NC(=O)[C@H]([C@@H](C)O)NC1=O
For B10, the “IC50” value was 2.32 nM.

B11: Compound 35: H-Cpa-cyclo[DCys-Phe-D-(4-carbamoyl)Phe-Lys-Thr-Cys]-DTyr-NH2 (peptide)
peptide: XXFXKTCX
HELM: PEPTIDE1{[N[C@@H](Cc1ccc(Cl)cc1)C(=O)[*:2]].[dC].F.[NC(=O)c1ccc(C[C@@H](N[*:1])C(=O)[*:2])cc1].K.T.C.[dY].[am]}$PEPTIDE1,PEPTIDE1,2:R3-7:R3$$$V2.0
SMILES: C[C@@H](O)[C@@H]1NC(=O)[C@H](CCCCN)NC(=O)[C@@H](Cc2ccc(C(N)=O)cc2)NC(=O)[C@H](Cc2ccccc2)NC(=O)[C@H](NC(=O)[C@@H](N)Cc2ccc(Cl)cc2)CSSC[C@@H](C(=O)N[C@H](Cc2ccc(O)cc2)C(N)=O)NC1=O
Turning to B11, the “IC50” value stood at 35.9 nM.

B12: Compound 32: H-Cpa-cyclo[D-Cys-Tyr-D-Phe(4-carbamoyl)-Lys(N-diMe)-Thr-Cys]-D-Tyr-NH2 (peptide)
peptide: H-[Phe(4-Cl)][dC]Y[dPhe(4-CONH2)]K(diMe)TC[dY]-NH2
modifications: disulfide 2-7
On to B12, for which the “IC50” value came to 2.46 nM.

B13: Compound 27: H-Cpa-cyclo[DCys-Tyr-D-(4-Benzamidophenyl)Phe-Lys-Thr-Cys]-DTyr-NH2 (peptide)
peptide: H-[Phe(4-Cl)][dC]Y[dPhe(4-benzamidophenyl)]KTC[dY]-NH2
modifications: disulfide 2-7
In the case of B13, the “IC50” value was found to be 34.7 nM.

B14: Compound 38: H-Cpa-cyclo[DCys-4-OMe-Phe-D-(4-carbamoyl)Phe-Lys-Thr-Cys]-DTyr-NH2 (peptide)
peptide: H-[Phe(4-Cl)][dC][Tyr(Me)][dPhe(4-CONH2)]KTC[dY]-NH2
modifications: disulfide 2-7
SMILES: COc1ccc(C[C@@H]2NC(=O)[C@H](NC(=O)[C@@H](N)Cc3ccc(Cl)cc3)CSSC[C@@H](C(=O)N[C@H](Cc3ccc(O)cc3)C(N)=O)NC(=O)[C@H]([C@@H](C)O)NC(=O)[C@H](CCCCN)NC(=O)[C@@H](Cc3ccc(C(N)=O)cc3)NC2=O)cc1
With B14, the “IC50” value came to 24.4 nM.

B15: Compound 40: H-Cpa-cyclo[DCys-Tyr-D-(4-carbamoyl)Phe-Lys-Thr-Cys]-DPhe-NH2 (peptide)
peptide: XXYXKTCX
HELM: PEPTIDE1{[N[C@@H](Cc1ccc(Cl)cc1)C(=O)[*:2]].[dC].Y.[NC(=O)c1ccc(C[C@@H](N[*:1])C(=O)[*:2])cc1].K.T.C.[dF].[am]}$PEPTIDE1,PEPTIDE1,2:R3-7:R3$$$V2.0
SMILES: C[C@@H](O)[C@@H]1NC(=O)[C@H](CCCCN)NC(=O)[C@@H](Cc2ccc(C(N)=O)cc2)NC(=O)[C@H](Cc2ccc(O)cc2)NC(=O)[C@H](NC(=O)[C@@H](N)Cc2ccc(Cl)cc2)CSSC[C@@H](C(=O)N[C@H](Cc2ccccc2)C(N)=O)NC1=O
Turning to B15, the “IC50” value is 16.2 nM.

B16: Compound 36: H-Cpa-cyclo[DCys-Cpa-D-(4-carbamoyl)Phe-Lys-Thr-Cys]-DTyr-NH2 (peptide)
peptide: H-[Phe(4-Cl)][dC][Phe(4-Cl)][dPhe(4-CONH2)]KTC[dY]-NH2
modifications: disulfide 2-7
SMILES: C[C@@H](O)[C@@H]1NC(=O)[C@H](CCCCN)NC(=O)[C@@H](Cc2ccc(C(N)=O)cc2)NC(=O)[C@H](Cc2ccc(Cl)cc2)NC(=O)[C@H](NC(=O)[C@@H](N)Cc2ccc(Cl)cc2)CSSC[C@@H](C(=O)N[C@H](Cc2ccc(O)cc2)C(N)=O)NC1=O
For B16, the “IC50” value stood at 28.7 nM.

B17: Compound 42: H-Cpa-cyclo[DCys-Tyr-D-(4-carbamoyl)Phe-Lys-Thr-Cys]-4-Cl-D-Phe-NH2 (peptide)
peptide: H-[Phe(4-Cl)][dC]Y[dPhe(4-CONH2)]KTC[dPhe(4-Cl)]-NH2
modifications: disulfide 2-7
SMILES: C[C@@H](O)[C@@H]1NC(=O)[C@H](CCCCN)NC(=O)[C@@H](Cc2ccc(C(N)=O)cc2)NC(=O)[C@H](Cc2ccc(O)cc2)NC(=O)[C@H](NC(=O)[C@@H](N)Cc2ccc(Cl)cc2)CSSC[C@@H](C(=O)N[C@H](Cc2ccc(Cl)cc2)C(N)=O)NC1=O
As to B17, the “IC50” value was 9.84 nM.

B18: Compound 30: H-Cpa-cyclo[D-Cys-Tyr-D-Lys(Nε-nicotinoyl)-Lys(Nε-Me)-Thr-Cys]-D-Tyr-NH2 (peptide)
peptide: H-[Phe(4-Cl)][dC]Y[dK](Nicotinoyl)K(Me)TC[dY]-NH2
modifications: disulfide 2-7
SMILES: CNCCCC[C@@H]1NC(=O)[C@@H](CCCCNC(=O)c2cccnc2)NC(=O)[C@H](Cc2ccc(O)cc2)NC(=O)[C@H](NC(=O)[C@@H](N)Cc2ccc(Cl)cc2)CSSC[C@@H](C(=O)N[C@H](Cc2ccc(O)cc2)C(N)=O)NC(=O)[C@H]([C@@H](C)O)NC1=O
For B18, the “IC50” value is 177 nM.
